Measured values published in the supplement of paper PMC10567573.

B1: TPD52L1 (parent)
chain: ISKKFGDMSYSIRHSISMPAMRNS

Variants of: B1
Assay: protein stability index of a GFP-peptide fusion (GPS, HEK-293T) (PSI 1-6); higher = more stable
Conditions: c terminus: a fixed tail appended
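Note: lentivirally expressed fusions sorted by FACS into six bins by GFP to DsRed ratio, PSI derived from sequencing read proportions per bin multiplied by bin number.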

Protein stability index: each site, then its substitutions
R22: L 1.82, T 2.6, Y 1.88, E 2.18, K 2.75, V 1.8, D 2.52, I 1.85, A 2.23, S 2.13, G 2.66, C 1.97, H 2.56
I12: M 2.44, A 2.55, R 2.86, V 2.28, W 1.57, L 2.71, K 2.56, Q 2.27, P 2.98, Y 2.37, S 2.41, N 3.1, E 3.36, H 2.6, F 2.63, T 2.83
P19: A 1.98, H 2.01, Q 2.33, V 1.87, S 1.97, R 1.9, G 2.6, K 1.83, W 1.71, E 2.47, C 1.76, M 2.58, F 1.87, L 2.35, I 2.6
S9: H 2.38, F 2, G 2.27, T 2, V 2.03, R 2.22, Q 2.31, A 2.23, M 1.51, L 1.42, N 2.36, E 2.34, Y 1.98
S24: R 2.67, G 2.13, Q 1.76, L 1.96, E 2.15, M 1.82, Y 1.77, K 2.21, A 2.63, C 1.92, N 2.33, P 2.33, V 2.24, H 2.42
D7: Q 2.04, K 2.58, V 1.82, R 2.21, G 1.68, E 2.22, T 1.54, A 2.15, H 1.77, I 3.23, F 1.7, W 1.9, Y 2.31, N 1.67
G6: L 1.45, E 2.31, A 1.65, D 2.28, P 2.75, R 2.35, Y 1.86, C 1.98, F 1.97, H 1.88, S 2.24, Q 2.19, V 2.15, K 1.74, T 2.62, M 2.62
F5: S 2.67, M 2.29, K 2.44, I 2.37, D 2.46, P 2.85, Q 2.78, E 3.06, C 2.26, L 1.78, A 2.97, T 2.24, Y 2.56, H 2.72, V 2.51
K4: I 1.98, Q 2.09, A 2.35, V 2.01, C 2.36, H 2.57, M 2.1, T 2.48, W 1.76, G 2, N 2.13, E 2.33
S17: E 2.1, D 2.36, Q 2.48, N 2.25, R 2.17, T 2.11, V 2.12, Y 1.98, F 2.13, A 2.01, M 2.17, L 1.8, G 2.42, P 2.28
S2: D 2.94, Q 2.37, T 2.21, V 2.34, M 1.75, R 2.54, L 2.97, G 2.88, N 2.37, A 2.41, I 2.97, H 2.11, K 2.74
I16: W 1.97, M 2.9, G 2.51, Y 2.12, C 2.02, E 3.25, S 2.77, Q 2.72, H 2.36, F 1.61, K 2.98, A 2.76, R 2.81, L 2.46
N23: H 2.19, Y 1.51, S 2.26, L 1.98, C 1.91, F 1.84, A 1.86, G 2.42, I 1.77, T 2.31, M 2.05, V 1.84
H14: C 2.73, E 2.33, N 2.38, L 3.05, Q 2.28, R 3.72, P 2.56, A 2.15, D 3.35, I 2.73, M 2.44, F 2.49
M18: I 2.53, K 2.31, Q 2.77, C 2.21, H 2.6, P 2.64, W 1.7, Y 1.87, L 2.01, E 2.74, V 1.83, T 2.58
Y10: R 2.41, I 2.23, V 2.94, E 2.88, N 2.73, Q 2.76, T 2.72, S 2.84, D 2.98, W 1.93, M 2.37, L 1.88
S11: G 2.52, M 2.03, H 2.41, F 1.91, L 2.75, N 2.74, R 2.24, Y 2.06, W 1.67, K 1.99, A 2.51, D 2.68, Q 2.22, P 2.58
M8: A 2.87, T 2.33, S 2.4, D 2.78, L 2.27, P 3.46, W 2.42, K 2.48, H 2.33, E 3.18, V 2.38, I 2.13, Q 2.85, R 2.53
M21: G 2.4, V 2.53, A 2.82, Y 2.46, S 2.46, N 2.68, D 2.75, K 3.21, H 2.46, P 2.54, W 2.79, Q 2.33, I 2.39, L 2.27, R 2.57, E 3.36
I1: Q 2.88, L 2.23, V 3.17, E 2.9, Y 1.54, T 2.9, R 2.16, F 1.88, D 3.33, P 2.89, G 2.65
A20: Q 2.26, F 2.2, T 2.58, I 2.67, K 2.35, H 2.28, W 2.13, Y 2.17, D 3.36, R 2.24, S 2.04, G 1.67, V 2.95, C 2.38, P 2.36, N 2.58
K3: Q 2.25, F 4.67, G 2.25, E 2.62, Y 2.8, W 3.69, T 2.19, A 1.57, S 2.25, M 2.67, D 2.34, P 2.63, C 2.69, H 2.37, L 2.83, N 2.5, R 2.16
S15: A 2.23, C 2.23, I 1.87, F 1.42, Y 1.51, G 2.38, L 1.83, M 1.91, R 2.24, H 1.85, P 2.43, T 1.88, Q 2.5, W 2.22
R13: N 2.1, L 1.77, E 2.48, V 2.6, D 2.49, C 1.78, Q 2.05, T 2.01, K 2.14, P 2.67, M 1.89, A 2.21, S 2.02, I 1.64, W 2.29
